The data set in a line: yeast display, Sf9 membrane polyspecificity reagent, FACS + sequencing; frameworks hold sequencing errors. The gist of the method: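 Nanobodies from a synthetic yeast display library (Saccharomyces cerevisiae BJ5465), induced 36–48 hours with galactose, were stained 1 hour at 4 °C with 10% biotinylated, detergent-solubilized Sf9 membrane reagent, enriched on streptavidin microbeads, then FACS-sorted. Anti-HA (expression) and streptavidin (reagent binding) fluorescence set low and high (top ~1%) gates. Polyreactivity labels come from the gate of origin. Genes were colony-PCR amplified, MiSeq 2 × 250 sequenced and filtered by CDR length.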
On to “QVQLVDSGGGLVQAGGRLRLSCAASGFIFGRNAMGWYRQAPGKERELVAGISSSGVRTFYADSVKGRFTISRDNAKNTVYLQMNSLKPEDNAVYYCATRGRVYPTKYSLDEDYWGQGTQVTVSS”, for which the “polyreactivity (PSR sort gate)” value is “high polyreactivity”.
The value for “QVQLVDSGGGLVQAGGRLRLSCAASGSTFGHNAMGWYRQAPGKERQLLAAISRSGGITYYADSVKGRFTISRDNAKNTVYLQLNSLKPEDTAVYYCAADAWFSLRYAPRSYAYGYWGQGTQVTVSS” was “low polyreactivity”; that for “QVQLVDSGGGLVQAGGRLRLSCAPSGLTFARNAMGWYIQAPGKERELVAAISRSGGRTSYADSVKGRFTISRDIAKNTVYVQMNSLKPVDTAVYYCAARSDVYSHDYWGQGTQVTVSS” was “high polyreactivity”.
Regarding “QVQLVDSGGGLVQAGGRLRLSCDASGLTLYKNGLGWYRLEPVKERELFAVISRSGGRTYYADSVKGRFTISRDNAKNTVYLQFNSLKPEETAVYYCAARGIGPTKYDYLGQGTQVTVSS”, the “polyreactivity (PSR sort gate)” value was “high polyreactivity”.
With “QVQLVDSGGGLVQAGGSHRLSCAASGLTYHQYAMGWYRQAPGKERELVAAITSDGASTNYADSVKGRFTISRDNAKNTVYLQMISLKPEDTAVYYGAARRRSRQYRYDYWGQGTQVTVSS”, the “polyreactivity (PSR sort gate)” value was “high polyreactivity”.
In the case of “QVQLVDSGGGLVQAGGSLRFSCAASGRTSNVYAMGWFRQAPGKERELVAAISARDGTTYNADSVKGRFTISRDNAKNTVYLQMNSLKPEDTAVYYCAAAVLSYADYYYDYEYWGQGTQVTVSS”, the “polyreactivity (PSR sort gate)” value is reported as “high polyreactivity”.
For “QVQLVDSGGGLVQAGGSLRISCAASGRNFGYNAMGSYRQAPGKERELVAAISSGGSTYYADSVKGLFTISRDNAKNTVYLQINSLKPEDTAVYFCAAEDYPPYPTDYDYWGQGSQVTVSS”, the “polyreactivity (PSR sort gate)” value is on record as “low polyreactivity”.
In the case of “QVQLVDSGGGLVQAGGSLRLICAASGRTFGGNTMGWYREAPGKERELVAAISRRGGSTYYADSVKGRFSISRDNAKNTVYLQMNSLKPEDTAVYYCNKDGPSYSSYDYWGQGTQVTVSS”, the “polyreactivity (PSR sort gate)” value is recorded as “low polyreactivity”.
On to “QVQLVDSGGGLVQAGGSLRLICAASGSIFIDKAMGWYRQAPGKERELVAAISWSGGRTYYADSVKGRFTISRDNAKNTVYLQMNSLKPEDTAVYYCAVDFRHPYDYDYWGQGTQVTVSS”, for which the “polyreactivity (PSR sort gate)” value was “high polyreactivity”.
On to “QVQLVDSGGGLVQAGGSLRLSCAAAGSNLSQYAMGWYRQAPGKERELVAAITYGGGSTYYADSVKGRFTISRDNAKKTVHIQMISLKPEDPAVYYCALEFTYWGDPYDYWGQGTQVTVSS”, for which the “polyreactivity (PSR sort gate)” value is listed as “low polyreactivity”.
On to “QVQLVDSGGGLVQAGGSLRLSCAASGFIDALDAMGWYRQAPGKERELVAAISYSGGSTYYADSVKGRFTISRDNAKNTVYLQMNSLKPEDTAVYYCAVYYRSAFYYWGQGTQVTVSS”, for which the “polyreactivity (PSR sort gate)” value is given as “high polyreactivity”.
In the case of “QVQLVDSGGGLVQAGGSLRLSCAASGFIFDTNVMGWYRQAPGKERELVAAISWDVDSTYYADSVKGRFTISRDNAKNTVYLQMNSLKPEDTAVYYCATETFDYYGLAGEYWGQGTQVTVSS”, the “polyreactivity (PSR sort gate)” value is listed as “high polyreactivity”.
As for “QVQLVDSGGGLVQAGGSLRLSCAASGFIFFQNAMGWYRQSPGKERELVAAISRRGGSTYYADSVKGRFTISRDNAKNTVYLQRNSLTPDDTAGYYCAARSRCDLASRYTGDYWGQGTQLTVSS”, the “polyreactivity (PSR sort gate)” value is “low polyreactivity”.
With “QVQLVDSGGGLVQAGGSLRLSCAASGFIFTQYAMGWYRQAPGQDRELVAAISRSGSSTYYADSVKGRFTISRDNAKNTVSLQMNSLKPEDTAVYYCAAKGSRGTRYWGEDYWGQGTQVTVSS”, the “polyreactivity (PSR sort gate)” value is “low polyreactivity”.
On to “QVQLVDSGGGLVQAGGSLRLSCAASGFIFVRYAMGWYRQAPGKERELVAAISWSGARTYYADSVKGRFTISRDNAKNTVYLQFNSLKPEDSAVYYCAADSLDAGYYGYDYWGQGTQVGVSS”, for which the “polyreactivity (PSR sort gate)” value is given as “high polyreactivity”.
The same measure for “QVQLVDSGGGLVQAGGSLRLSCAASGFTFRPYAMGWYRQAPGKERELVATITGRGGSTYYADSVKGRFTISRDTAKNTVYLQMNSLKPEDTAVYYCASRARYSPAPYDYWGQGTQVTVSS”: “high polyreactivity”.
Take “QVQLVDSGGGLVQAGGSLRLSCAASGFTFVYYFMGWYRQAPGKERELVAAITRSCRTYYADSVKGRFTISRDNAKNTVYLQMNSLKPEDTAVYYCARGYGYADHAMGYWGQGTQVTVSS”: the “polyreactivity (PSR sort gate)” value is given as “high polyreactivity”.
The value for “QVQLVDSGGGLVQAGGSLRLSCAASGFTFYLYTMGWYRPAPGKERQLVATITSDGGTNYADSVKGRFTISRDNAKNTVYLQMNSLKPEDTAVYYCNAASRRGSRKQAKYDYWGQGTQVTVSS” was “low polyreactivity”; that for “QVQLVDSGGGLVQAGGSLRLSCAASGFTFYRYAMGWYRQAPGKERELVAAITGRAGRTYYADSVKGRFTISRDNAKNTVYLQMNSLKPEDTAVYYCSGYRYYGGYGYWGQGTQVTVSS” was “high polyreactivity”.
As to “QVQLVDSGGGLVQAGGSLRLSCAASGFTIKYYAMVWYRQAPGKERELVATITSGARTNYADSVKGRFTISRDNAKNTVYLQMNSLKPEDTAVYYCATPYSAYWQNERDYWGQGTQVTVSS”, the “polyreactivity (PSR sort gate)” value is “high polyreactivity”.
For the sequence “QVQLVDSGGGLVQAGGSLRLSCAASGGTFKYYAMGWYRQAPGKERELVAAITWSGGSTYYADSVKGRFTISRDNAKNTVYLQMNSLKPEDTAVYYCNAAYSQIRFNYWGQGTQVTVSS”, the “polyreactivity (PSR sort gate)” value is “high polyreactivity”.
“QVQLVDSGGGLVQAGGSLRLSCAASGGTFQGNAMGWYRQAPGKEREFVATITRGGGSKYYADSVKGRFTISRDNAKNTVYLQMNSLKPEDTAVYFCNAYLVSRYPGDYWGQGTQVTVSP”: the “polyreactivity (PSR sort gate)” value is reported as “high polyreactivity”.
On to “QVQLVDSGGGLVQAGGSLRLSCAASGGTLRYYAMGWYRQAPGTEREFVASISRSGGSTYYADSVKGRFTISRDTAKYTVYLQMNSLKPVDTAVYYCADVKSSGSPRARYGYWGQGTQVTLSS”, for which the “polyreactivity (PSR sort gate)” value is listed as “high polyreactivity”.
Consider “QVQLVDSGGGLVQAGGSLRLSCAASGITFSGYDMGWYRQAPWKERELVADITISTGSTYYADSVKGRYTISRDNAKNSVYLQMNSLKPEDTAVYYCAADWTGGFYTWYVIPYDYWGQGTQVTVSS”, for which the “polyreactivity (PSR sort gate)” value is “low polyreactivity”.
“QVQLVDSGGGLVQAGGSLRLSCAASGITFTRYAMGWYRQAPGKERELVAAISSGGRTNYADSVKGRFTISRDNAKNTVYLQMNSLKREDTAVYYCNALYRARWGLGTQVTVSS”: the “polyreactivity (PSR sort gate)” value is reported as “high polyreactivity”.
Turning to “QVQLVDSGGGLVQAGGSLRLSCAASGLIFLYYAMGWYRQAPGKERELVAAISSSGSTYYADSVKGRFTISRDNAKNTVYLQMNSLKPEDTAVYYCAARWTRNYGMNYWGQGTQVTVSS”, the “polyreactivity (PSR sort gate)” value was “high polyreactivity”.
For “QVQLVDSGGGLVQAGGSLRLSCAASGLTFYSNAMGWYRQAPGKEREFVASITRRTGITFYAVSVKGRFTISRDNAKNTVYLQMNSLKPYDTAVYYCATRGGYPKGYGYLAFNYWGQGTQVTVSS”, the “polyreactivity (PSR sort gate)” value is “high polyreactivity”.
For “QVQLVDSGGGLVQAGGSLRLSCAASGNIFVGNAMGWYRQAPGKERELVAAIRRSGGTTYYADSVKGRFTISRDNAKNTVYLQMNSLKPEDTAVYYCAASRPYQGDYWGQGTQVTVSS”, the “polyreactivity (PSR sort gate)” value is listed as “low polyreactivity”.
For “QVQLVDSGGGLVQAGGSLRLSCAASGRIFRYNTMGWYRQAPGKEREFVAAITQRGVNTYYADSVKGRFTISRDNAKNTVYLQMNRLKPEDTAVYYCNAKRYSYWIYRAYDYWGQGTQVTVSS”, the “polyreactivity (PSR sort gate)” value is given as “low polyreactivity”.
Turning to “QVQLVDSGGGLVQAGGSLRLSCAASGRIFRYYAMGWSRQAPGKERELVARITNGAITNYADSVKGRFTISRDNAKNTLYLQRNSLKPEETAVYYCAATQNLYRCGYWGQGTQVTVSS”, the “polyreactivity (PSR sort gate)” value was “high polyreactivity”.
In the case of “QVQLVDSGGGLVQAGGSLRLSCAASGRIFWHNAMGWYRQAPGKERELVAAITGGGSTYYADSVKGRFTMSRVNAKNTVYLQKNSLIPEDTAVYYCATLGSLRYYWPGYDYWGQGTQVTVSS”, the “polyreactivity (PSR sort gate)” value is “low polyreactivity”.
Consider “QVQLVDSGGGLVQAGGSLRLSCAASGRIFYAYDMGWYRQAPGKERELVADITSSGSTNYADSVKGRFTISRDNAKNTVYLQMNSLKPEDTAVYYCNTEPSGYESGYWGQGTQVTVSS”, for which the “polyreactivity (PSR sort gate)” value was “low polyreactivity”.
As for “QVQLVDSGGGLVQAGGSLRLSCAASGRIFYFNAMGWYREAPGKERELVAAISKSGGSTYYADSVKGRFTISRDNAKNTVYLQMNSLKPEDTAVYYCAAGFWYYSYPTLYEYGYWGQGTQVTVSS”, the “polyreactivity (PSR sort gate)” value is recorded as “low polyreactivity”.
Take “QVQLVDSGGGLVQAGGSLRLSCAASGRIFYSYAMGWYRQAPGKERELVAAISRSGGRTYYADSVKARFTISRDNAKNTVYFQMNSLKPEDTAVYYCAADGRVGEEEYWGQGTQVTVSS”: the “polyreactivity (PSR sort gate)” value is “high polyreactivity”.
Consider “QVQLVDSGGGLVQAGGSLRLSCAASGRNFARYSMGWYRQAPGTERELVAAISWCGTSTYYADSVKGRYTISRDNAKNTVYLQMNSLKPEDTAVYYCAATYLYRDQPKWGGFAYTYGHWGQGTQVTVSS”, for which the “polyreactivity (PSR sort gate)” value is on record as “high polyreactivity”.
With “QVQLVDSGGGLVQAGGSLRLSCAASGRTFGVYAMGWYRQAPGKERELVAVINRSGGSTYYADSVKGRFTISRDNAKNTVYLQMNSLKPEDTAVYYCAARVTSHMYYWGQGTQVTVSS”, the “polyreactivity (PSR sort gate)” value is on record as “high polyreactivity”.
For the sequence “QVQLVDSGGGLVQAGGSLRLSCAASGRTFHKYAMGWYRQAPGKERELVAAISNGGRTYYADSVKGRFTISRDNAKNTLYLQMNSLKPEDTAVYYCNADRTWKGRQYDYWGQGTQVTVSS”, the “polyreactivity (PSR sort gate)” value was “high polyreactivity”.
The value for “QVQLVDSGGGLVQAGGSLRLSCAASGRTIGFYAMGWYRQAPGKERELVAAINRSGDSTYYADSVKGRFTISRDNAKNTVYLQMNSLKPEDTAVYYCAASYGYRYEYWGQGTQVTVSS” was “high polyreactivity”; that for “QVQLVDSGGGLVQAGGSLRLSCAASGRTSRRYAMGWYRQEPGKERELVAAIRGSGGSTYYADSVKGRFTISRDNAKNTVYLQMNSLKPEDTAVYYCAARSPRASGNSDYWGQGTQVTVSS” was “high polyreactivity”.
On to “QVQLVDSGGGLVQAGGSLRLSCAASGRTYFWNAMGWYRQAPGKERELVAAITWSGGSTYYADSVKGRFTISRDNAKNTVYLQMNSLKPEDTAVYYCAAVVSDYVWRYEYWGQGTQVTVSS”, for which the “polyreactivity (PSR sort gate)” value is on record as “low polyreactivity”.
For the sequence “QVQLVDSGGGLVQAGGSLRLSCAASGSIFAYYTIGWYRQAPRKERELVAAITSGGSTNYADSVKGRFTISRDNAKNTVYLQMNSLKPEDTAVYYCAVQGSRYSYRYGYRFRTMDYWGQGTQVTVSS”, the “polyreactivity (PSR sort gate)” value was “high polyreactivity”.

The values above are taken from the nanobody polyreactivity screen of Harvey et al. (2022).
